How the values were obtained:
[1] = molecular target: T1, synthetic peptide corresponding to camel kappa-CN
T1 chain: RPRPRPSXIAI

[2] = molecular target: T2, synthetic peptide corresponding to bovine kappa-CN
T2 chain: HPHPHLSXMAI

B1: recombinant Camelus dromedarius chymosin (protein)
chain: GKVAREPLTSYLDSQYFGKIYIGTPPQEFTVVFDTGSSDLWVPSIYCKSNVCKNHHRFDPRKSSTFRNLGKPLSIHYGTGSMEGFLGYDTVTVSNIVDPNQTVGLSTEQPGEVFTYSEFDGILGLAYPSLASEYSVPVFDNMMDRHLVARDLFSVYMDRNGQGSMLTLGAIDPSYYTGSLHWVPVTLQQYWQFTVDSVTINGVAVACVGGCQAILDTGTSVLFGPSSDILKIQMAIGATENRYGEFDVNCGNLRSMPTVVFEINGRDYPLSPSAYTSKDQGFCTSGFQGDNNSELWILGDVFIREYYSVFDRANNRVGLAKAI
Question: How did the “KM for Cd κ-CN” value [1] turn out when B1 was run?
Answer: The value was 0.056 ± 0.035/-0.021 mM.

Question: And the “kcat for Cd κ-CN” value [1]?
Answer: Its value is 5.1 ± 1.7/-1.0 s^-1.

Question: What about the “KM for Bt κ-CN” value [2] of the same protein?
Answer: Its value is 0.077 ± 0.019/-0.015 mM.

Question: And the “kcat for Bt κ-CN” value [2]?
Answer: The value was 11.7 ± 1.5/-1.2 s^-1.

B2: recombinantly produced bovine chymosin, ChyMax (protein)
chain: GEVASVPLTNYLDSQYFGKIYLGTPPQEFTVLFDTGSSDFWVPSIYCKSNACKNHQRFDPRKSSTFQNLGKPLSIHYGTGSMQGILGYDTVTVSNIVDIQQTVGLSTQEPGDVFTYAEFDGILGMAYPSLASEYSIPVFDNMMNRHLVAQDLFSVYMDRNGQESMLTLGAIDPSYYTGSLHWVPVTVQQYWQFTVDSVTISGVVVACEGGCQAILDTGTSKLVGPSSDILNIQQAIGATQNQYGEFDIDCDNLSYMPTVVFEINGKMYPLTPSAYTSQDQGFCTSGFQSENHSQKWILGDVFIREYYSVFDRANNLVGLAKAI
Question: What does the source list for B2?
Answer: KM for Cd κ-CN [1]: 0.134 ± 0.022/-0.021 mM; kcat for Cd κ-CN [1]: 4.3 s⁻¹; KM for Bt κ-CN [2]: 0.165 ± 0.015/-0.014 mM; kcat for Bt κ-CN [2]: 44.3 s⁻¹

Reference: patent US20020164696
